Assay results as given in the Human Domainome abundance scans (Beltran et al. 2025).

B1: Probable E3 ubiquitin-protein ligase MID2, residues 191 to 235; numbered along this chain, Q9UJV3 (parent)
chain: RGITCLDHENEKVNMYCVSDDQLICALCKLVGRHRDHQVASLNDR
B2: Zinc finger homeobox protein 3, residues 2244 to 2299; numbered along this chain, Q15911 (parent)
chain: SSRTRFTDYQLRVLQDFFDANAYPKDDEFEQLSNLLNLPTRVIVVWFQNARQKARK

Variants of: B1
Experiment: abundance fitness (aPCA) (normalised: wild type 0, dead -1); higher = more abundant; growth selection in yeast, the domain comes from the species named
Conditions: Homo sapiens

Abundance fitness, by site and new letter:
N43: V -0.042; I -0.275; M -0.252; A 0.1; H -0.016; T 0.008; K 0.164; L -0.126; P 0.062; S -0.022; G -0.011; C -0.097; Q -0.043; R -0.154; D -0.036; W -0.405; E 0.192
D44: M -0.187; Y -0.285; K -0.175; F -0.422; T -0.122; C -0.452; A -0.152; E 0.003; V -0.211; L -0.427; G -0.075; W -0.472; P -0.061; Q -0.234; S -0.067
R45: K 0.025; E 0.276; H 0.256; I -0.033; C 0.018; F 0.151; P 0.041; S 0.084; A 0.178; V -0.105; Q 0.033; W -0.164; L -0.253; M -0.201; T -0.04; G 0.15; D -0.087
S41: K -0.102; P 0.061; R -0.039; V -0.298; T -0.001; L -0.157; M -0.222; W -0.458; N 0.1; I -0.481; Y -0.502
L42: S 0.046; P -0.363; C 0.269; M -0.031; E 0.091; T -0.096; N 0.045; R -0.095; Q -0.134; Y -0.127; V -0.016; K -0.054; F -0.133; D -0.046; G -0.071; A 0.118; W -0.198

Variants of: B2
Experiment: as above
Conditions: Homo sapiens

Abundance fitness of substitutions, site by site:
D8: N -0.237; T -0.158; M -0.202; W -0.401; K -0.027; F -0.591; C -0.022; Q -0.035; R -0.173; E -0.138; L -0.332; I -0.641; P -0.235; G -0.145; H -0.269; A -0.123; V -0.405
L11: S 0.062; F -0.364; W -0.361; I 0.055; V 0.015; R -0.141; M 0.204; G -0.171; T 0.172; A -0.181; N 0.007; C -0.743; E 0.038; K -0.146; Y -0.404; H -0.203
S1: N 0.158; D 0.137; A -0.047; E 0.181; W -0.939; F -0.357; M -0.277; V -0.158; L -0.179; I 0.252; C 0.079; T 0.003; G 0.256; P -0.636; R -0.097
F6: I -0.164; A -0.678; Y -0.06; K -0.408; G -0.633; E -0.657; T -0.433; P -0.774; C -0.345; L -0.321; R -0.703; M 0.094; V -0.21; H -0.672; N -0.52
S2: E 0.182; Q -0.093; V 0.042; K -0.194; T 0.214; N 0.007; W -0.255; D 0.21; C -0.118; Y 0.097; G -0.006; H -0.043; F -0.214; L 0.026; R -0.299; I 0.393; A -0.353; M 0.321
R5: A 0.213; L 0.197; H 0.218; M 0.478; P 0.026; F 0.234; S 0.2; V 0.362; Q 0.092; G 0.19; W 0.234; I 0.323; D 0.423; C 0.323; Y 0.344; K 0.29; T 0.274; N 0.305; E 0.321
T7: C -0.563; P -0.84; R -0.556; I -0.586; Y -0.446; H -0.665; F -0.725; D -0.258; M -0.46; L -0.363; S -0.186; G -0.487; N -0.565; A -0.289; V -0.614; K -0.272
Q10: C -0.764; L -0.919; S -0.445; T -0.714; D -0.631; M -0.216; K -0.924; R -0.724; F -0.569; E -0.59; I -0.769; N -0.76; W -0.964; G -0.863; H -0.563; A -0.649; P -0.923
Y9: W -0.217; T -0.135; P -0.195; G -0.063; E -0.007; Q 0.211; I -0.383; K 0.162; S 0.053; A 0.083; D 0.002; M -0.005; N -0.097; L -0.216; H -0.129
T4: A -0.883; L -0.116; S 0.024; R -0.388; M 0.304; W -0.656; P -0.154; N 0.211; E -0.357; H -0.072; G -0.394; V -0.634; I 0.032; F 0.03; Y -0.198; Q -0.08; D 0.117; K -0.661; C -0.632
R3: L 0.439; V 0.392; I 0.108; Y 0.301; P 0.17; M 0.308; E 0.038; S 0.386; G 0.281; D 0.505; H 0.368; N 0.43; C 0.467; W 0.094; T 0.4; A 0.388; F 0.387
R12: F -0.738; Q 0.045; V -0.466; H 0.051; G -0.238; I -0.312; W -0.504; Y -0.524; C -0.531; L -0.221; M -0.378; N 0.035; P -0.794; A -0.455; S -0.149; K 0.169; D 0.024; E -0.422; T -0.136
Q15: S -0.22; K -0.243; D -0.172; P -0.889; V -0.319; M -0.155; N -0.077; W -0.213; E 0.015; Y -0.559; T -0.113; L -0.079; H -0.036; C -0.668; G -0.01; R -0.213; F -0.299
L14: Q -0.549; E -0.807; P -0.832; A -0.668; H -1.24; R -0.93; S -0.849; F -0.768; I -0.108; K -0.948; G -0.931; C -0.508; Y -1.05; N -0.953; V -0.493; W -0.946; M -0.019; D -0.825
V13: E -0.237; R -0.323; Q 0.168; K 0.008; P -0.773; Y 0.003; W -0.794; F -0.291; M 0.173; H -0.178; N -0.244; T -0.116; I -0.359; G -0.339; S -0.048; L -0.093; A -0.018; C -0.276; D -0.692
